These results are taken from patent publication US20240100176A1 (Eli Lilly, published 2024).

The target of experiment [1] is T1, hexahistidine tagged human IL-4Rα ECD R160D (human, UniProt P24394 26-232).
T1 construct: not shown: hexahistidine tag
Nature of the experiment: capture ELISA: Ab1 on anti-human IgG Fc, His-tagged receptor at 0.04 µg/mL, anti-His HRP. The source says:
(§1) Example 2d. […] Briefly, thirty surface amino acid residue substitutions were introduced individually into hexahistidine tagged human IL-4Rα extra cellular domain (ECD) as follows: K2D, E6R, K22D, P26R, T31R, F41A, L42G, L43G, E45R, E52R, G56R, D66R, A71R, Q82G, K87D, E94R, H107A, D108R, P124R, D125R, D143R, R148D, L155R, R160D, S164R, S168R, Q181R, P192R, K195D, or H197G. Each mutant protein having a single amino acid residue substitution as described above was transiently expressed in CHO cells and purified using standard immobilized metal affinity chromatography techniques. […] The plates were then washed 3 times with PBST and the exemplified human IL-4Rα antibody was added to the wells at a final concentration of 1 μg/mL in PBS-casein and incubated for 1 hour at room temperature. The plates were washed 3 times with PBST, the IL-4Rα mutant proteins were serially diluted 5-fold from 1 μg/mL for 3 points. in PBS-casein and added to the plate at 50 μL/well and incubated for 1 hour at room temperature. The plates were washed 3 times with PBST and a 1000-fold dilution of anti-histidine tag antibody HRP conjugate (R&D Systems, Cat. #MAB050H) in PBS-casein was added and incubated for 45 minutes at room temperature. The plates were washed 3 times, TMB substrate (Pierce, Cat. #34028) was added per manufacturer instructions, the reaction was quenched with H₂SO₄, and absorbance was read at 450 nm on an ELISA plate reader.
In general terms: ELISA stands for enzyme-linked immunosorbent assay.

For experiment [2], the target named is T2, hexahistidine tagged human IL-4Rα ECD L43G (human, UniProt P24394 26-232).
T2 construct: not shown: hexahistidine tag
Described as above.
Excerpt: as §1

Experiment [3] has as its target T3, hexahistidine tagged human IL-4Rα ECD P26R (human, UniProt P24394 26-232).
T3 construct: not shown: hexahistidine tag
The description is as above.
Excerpt: as §1

The target in experiment [4] is T4, hexahistidine tagged human IL-4Rα ECD K87D (human, UniProt P24394 26-232).
T4 construct: not shown: hexahistidine tag
The experiment is described as above.
Excerpt: as §1

Experiment [5] deals with T5, hexahistidine tagged human IL-4Rα ECD S164R (human, UniProt P24394 26-232).
T5 construct: not shown: hexahistidine tag
Described as above.
Excerpt: as §1

Experiment [6] concerns the target T6, hexahistidine tagged human IL-4Rα ECD S168R (human, UniProt P24394 26-232).
T6 construct: not shown: hexahistidine tag
Described as above.
Excerpt: as §1

The target of experiment [7] is T7, hexahistidine tagged human IL-4Rα ECD F41A (human, UniProt P24394 26-232).
T7 construct: not shown: hexahistidine tag
The description is as above.
Excerpt: as §1

Experiment [8] concerns the target T8, human FcγRIIb (CD32b) extracellular domain (human, UniProt P31994 43-217).
T8 construct: extracellular domain
T8 sequence (looked up): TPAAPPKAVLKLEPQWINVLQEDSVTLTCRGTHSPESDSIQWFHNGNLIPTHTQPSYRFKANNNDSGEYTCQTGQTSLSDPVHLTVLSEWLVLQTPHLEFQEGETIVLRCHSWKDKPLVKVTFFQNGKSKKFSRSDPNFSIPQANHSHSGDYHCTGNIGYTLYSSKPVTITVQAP
Nature of the experiment: SPR (Biacore), antibody captured on protein A, FcγR ECD as analyte, steady state, 25 °C. Here is the method: (§2) Unreacted sites were blocked with a 7 minute injection of ethanolamine at 10 μL/minute. Injections of 2×10 μL of glycine, pH 1.5, was used to remove any noncovalently associated protein. Running buffer was 1×HBS-EP+(TEKNOVA, P/N H8022). The FcγR extracellular domains (ECDs)-FcγRI (CD64), FcγRIIA_131R, and FcγRIIA_131H (CD32a), FcγRIIIA_158V, FcγRIIIA_158F (CD16a), and FcγRIIb (CD32b) were produced from stable CHO cell expression and purified using IgG Sepharose and size exclusion chromatography. For FcγRI binding, antibodies were diluted to […] in running buffer, and approximately 150 RU of each antibody was captured in FCs 2 through 4 (RU captured). FC1 was the reference FC, therefore no antibody was captured in FC1. […] Duplicate injections of each concentration were injected over all FCs at 40 μL/minute for 120 seconds followed by a 1200 second dissociation phase. Regeneration was performed by injecting 15 μL of 10 mM glycine, pH 1.5, at 30 μL/minute over all FCs. Reference-subtracted data was collected as FC2 FC1, FC3-FC1, and FC4-FC1 and the measurements were obtained at 25° C. The affinity (KD) was calculated using either steady state equilibrium analysis with the Scrubber 2 Biacore Evaluation Software or a “1:1 (Langmuir) binding” model in BIA Evaluation. For FcγRIIa, FcγRIIb, and FcγRIIIa binding, antibodies were diluted to 5 μg/mL in running buffer, and approximately 500 RU of each antibody was captured in FCs 2 through 4). FC1 was the reference FC. […] Duplicate injections of each concentration were injected over all FCs at 40 μL/minute for 60 seconds followed by a 120 second dissociation phase. Regeneration was performed by injecting 15 μL of 10 mM glycine, pH 1.5, at 30 μL/minute over all FCs. Reference-subtracted data was collected as FC2-FC1, FC3-FC1, and FC4-FC1, and the measurements were obtained at 25° C. The affinity (KD) was calculated using the steady state equilibrium analysis with the Scrubber 2 Biacore Evaluation Software. Each receptor was assayed at least two times.
(Surface plasmon resonance follows binding to a sensor surface in real time, without labels.)

In experiment [9] the target is T9, human FcγRIIA_131H (CD32a) extracellular domain (human, UniProt P12318 34-217).
T9 construct: extracellular domain
T9 sequence (looked up): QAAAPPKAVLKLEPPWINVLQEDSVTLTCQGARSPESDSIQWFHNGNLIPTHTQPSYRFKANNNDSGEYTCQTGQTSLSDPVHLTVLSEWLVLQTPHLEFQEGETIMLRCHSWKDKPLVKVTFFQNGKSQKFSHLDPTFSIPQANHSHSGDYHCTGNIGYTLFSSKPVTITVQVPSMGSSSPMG
Described as above. Here is the method: as §2

T1 sequence (P24394 26-232 R185D): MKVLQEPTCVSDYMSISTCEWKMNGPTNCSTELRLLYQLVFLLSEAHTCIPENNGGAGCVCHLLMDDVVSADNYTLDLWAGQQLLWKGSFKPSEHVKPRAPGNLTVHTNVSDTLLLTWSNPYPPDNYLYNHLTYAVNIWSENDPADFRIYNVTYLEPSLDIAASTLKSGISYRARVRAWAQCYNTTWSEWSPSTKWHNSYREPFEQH
T7 sequence (P24394 26-232 F66A): as the sequence (P24394 26-232 R185D) above, with F41A, D160R counted along it
T4 sequence (P24394 26-232 K112D): as the sequence (P24394 26-232 R185D) above, with K87D, D160R counted along it

B1: anti-human IL-4Rα antibody Ab1 (antibody, human IgG4 S228P, kappa)
heavy: QVQLVESGGGLVQPGGSLRLSCVASGFTFSHSSMNWVRQAPGKGLEWVSYISRATGAVYYADSVKGRFTISRDNAKNSLYLQMNSLRDEDTAVYYCAREPVFDYWGQGTLVTVSSASTKGPCVFPLAPCSRSTSESTAALGCLVKDYFPEPVTVSWNSGALTSGVHTFPAVLQSSGLYSLSSVVTVPSSSLGTKTYTCNVDHKPSNTKVDKRVESKYGPPCPPCPAPEFLGGPSVFLFPPKPKDTLMISRTPEVTCVVVDVSQEDPEVKFNWYVDGVEVHNAKTKPREEQFNSTYRVVSVLTVLHQDWLNGKEYKCKVSNKGLPSSIEKTISKAKGQPREPQVYTLPPSREEMTKNQVSLTCLVKGFYPSDICVEWESNGQPENNYKTTPPVLDSDGSFFLYSRLTVDKSRWQQGNVFSCSVMHEALHNHYTQKSLSLSLG
light: DIQMTQSPSAMSASVGDRVTITCRASQDISNYLAWFQQKPGKVPTRLIYAASSLQSGVPSRFSGSGSGTEFTLTISSLQPEDFATYYCLQWSSYPRTFGQGTKVEIKRTVAAPSVFIFPPSDEQLKSGTASVVCLLNNFYPREAKVQWKVDNALQSGNSQESVTEQDSKDSTYSLSSTLTLSKADYEKHKVYACEVTHQGLSSPVTKSFNRGEC
notes: human kappa light chain; also called anti-human IL-4Rα Ab1; unconjugated Ab1
With B1, the “ELISA (OD450)” value in experiment [1] stood at 1.2 OD450; in experiment [2], 1.35 OD450; in experiment [3], 0.883 OD450; in experiment [4], 0.911 OD450; in experiment [5], 1.4 OD450; in experiment [6] it was 1.18 OD450. The “ELISA (OD450)” value in experiment [7] came to 1.15 OD450.

B2: anti-human IL-4Rα Ab1 GC conjugate of Example 1b (n=4) (antibody, human IgG4 S228P, kappa)
heavy: QVQLVESGGGLVQPGGSLRLSCVASGFTFSHSSMNWVRQAPGKGLEWVSYISRATGAVYYADSVKGRFTISRDNAKNSLYLQMNSLRDEDTAVYYCAREPVFDYWGQGTLVTVSSASTKGPCVFPLAPCSRSTSESTAALGCLVKDYFPEPVTVSWNSGALTSGVHTFPAVLQSSGLYSLSSVVTVPSSSLGTKTYTCNVDHKPSNTKVDKRVESKYGPPCPPCPAPEFLGGPSVFLFPPKPKDTLMISRTPEVTCVVVDVSQEDPEVKFNWYVDGVEVHNAKTKPREEQFNSTYRVVSVLTVLHQDWLNGKEYKCKVSNKGLPSSIEKTISKAKGQPREPQVYTLPPSREEMTKNQVSLTCLVKGFYPSDICVEWESNGQPENNYKTTPPVLDSDGSFFLYSRLTVDKSRWQQGNVFSCSVMHEALHNHYTQKSLSLSLG
light: DIQMTQSPSAMSASVGDRVTITCRASQDISNYLAWFQQKPGKVPTRLIYAASSLQSGVPSRFSGSGSGTEFTLTISSLQPEDFATYYCLQWSSYPRTFGQGTKVEIKRTVAAPSVFIFPPSDEQLKSGTASVVCLLNNFYPREAKVQWKVDNALQSGNSQESVTEQDSKDSTYSLSSTLTLSKADYEKHKVYACEVTHQGLSSPVTKSFNRGEC
modifications: glucocorticoid receptor agonist payload-linker (GC-L, Preparation 8) conjugated to the engineered cysteines at the 124 and 378 position of the heavy chain (EU numbering); n is 4 (average DAR 4.17 by RP-HPLC, 3.85 by TOF MS)
On to B2, for which the Kd (as a rule, the concentration at which binding is half-saturated) in experiment [8] came out at 1960 nM; in experiment [9] it was 3650 nM.
